# Assay results from publication PMC12381204.
# Molecular target: Nucleocapsid protein (N), unmodified (SARS-CoV-2, UniProt P0DTC9 2-419)
# Assay: fluorescence polarization
# Conditions: protein: recombinant, tags: N-terminal 6xHis-TEV site, cleaved by TEV (Gly left before S2), chain copies: 2, label: 5'-FAM
binder,measurement,setting,value
CUGUGUGGCUGUCACUCGGCUGCAUGCUUAGUGCACUCACGCAG (structured_RNA) [SL4 RNA],Kd,hairpin,10.9 ± 1.4 nM
AAAAAAAAAAAAAAAAAAAAAAAAAAAAAA (ssRNA) [polyrA 30-mer],Kd,"single strand, unstructured",71.7 ± 0.8 nM
